Laboratory results published in PMC10746525.

B1: MBP-TRAK1_(342-431) [human] / MIRO1_(177-591) [human] (parent)
chain 1: EAQEELKNLRNKTMPNTTSRRYHSLGLFPMDSLAAEIEGTMRKELQLEEAESPDITHQKRVFETVRNINQVVKQRSLTPSPMNIPGSNQS
chain 2: EEKEMKPACIKALTRIFKISDQDNDGTLNDAELNFFQRICFNTPLAPQALEDVKNVVRKHISDGVADSGLTLKGFLFLHTLFIQRGRHETTWTVLRRFGYDDDLDLTPEYLFPLLKIPPDCTTELNHHAYLFLQSTFDKHDLDRDCALSPDELKDLFKVFPYIPWGPDVNNTVCTNERGWITYQGFLSQWTLTTYLDVQRCLEYLGYLGYSILTEQESQASAVTVTRDKKIDLQKKQTQRNVFRCNVIGVKNCGKSGVLQALLGRNLMRQKKIREDHKSYYAINTVYVYGQEKYLLLHDISESEFLTEAEIICDVVCLVYDVSNPKSFEYCARIFKQHFMDSRIPCLIVAAKSDLHEVKQEYSISPTDFCRKHKMPPPQAFTCNTADAPSKDIFVKLTTMAMYPHVTQADLKSST
B2: MBP-TRAK1_(342-431) [human] / MIRO1_(177-591) [human] (parent)
chain 1: B1 chain 2
chain 2: B1 chain 1

What was measured:
MIRO1_(177-591) [human] [1] = variants of: B1; assay: ITC; settings: with MIRO1_(177-591) [human]; 370 µM MBP-TRAK1(342-431) 400KR401 to AA in syringe, 30 µM MIRO1(177-591) in cell; ITC buffer with 5 mM EGTA
MIRO1_(177-591) [human] [2] = variants of: B2; assay: ITC; settings: with MIRO1_(177-591) [human]; 370 µM MIRO1(177-591) in syringe, 35 µM MBP-TRAK1(342-431) 400KR401 to AA in cell; ITC buffer with 5 mM EGTA

How did the Kd (MIRO1_(177-591) [human] [1]) turn out when chain 1 K59A R60A was run?
Its Kd is 9.62 µM.

What about the screen value (MIRO1_(177-591) [human] [1]) of the same variant?
The screen value was 0.91.

chain 2 K59A R60A was tested. Which Kd (MIRO1_(177-591) [human] [2]) did it give?
Its Kd is 7.52 µM.

And the screen value (MIRO1_(177-591) [human] [2])?
Its screen value is 0.74.
